In patent publication US20220177596A1 (Bristol-Myers Squibb, published 2022):

target: T1, human-CD40 monomer (human, UniProt P25942 21-193, limits assumed); assay: SPR 2 pt screen, Ab on protein A
T1 construct: also called hCD40-monomer; human-CD40-monomer protein
Protocol: The VH sequences were formatted in the context of an IgG1.3f isotype. The Vκ sequences were formatted as a full light chain with a common CL sequence. All 55 combinations of these humanized HC and LC constructs, as well as the chimeric Y1238 molecule were expressed as 3 ml supernatants for binding analysis by SPR. Each of the 56 supernatants, as well as a purified Y1238-chimeric IgG1 antibody, was captured on a protein A sensor chip and tested for binding to two concentrations (i.e., 200 nM and 1000 nM) of hCD40-monomer using BIAcore™ SPR in a screening assay. All antibodies, except for those containing hz-HC3, captured at high levels (>300 RU) using a 100-fold dilution of the expression supernatant, indicating a high antibody titer in the supernatant except for the hz-HC3 samples. The kinetic data for the two concentrations of hCD40-monomer were fit to a 1:1 Langmuir model, to yield estimates of the kinetic and affinity values for these interactions, and for comparison of the different molecules. […] Also, for a given heavy chain, the antibodies with light chains hz-LC1 or hz-LC2 had higher CD40 affinity than those with hz-LC3, hz-LC4 or hz-LC5.

T1 sequence (P25942 21-193 limits assumed): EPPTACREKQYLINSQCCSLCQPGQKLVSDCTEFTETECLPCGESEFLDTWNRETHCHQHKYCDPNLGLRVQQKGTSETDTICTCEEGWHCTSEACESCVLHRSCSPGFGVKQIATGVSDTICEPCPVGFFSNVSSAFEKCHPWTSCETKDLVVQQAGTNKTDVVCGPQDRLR

Row | Binder | Kd [nM] | koff [s⁻¹] | kon [M⁻¹ s⁻¹]
1 | humanized Y1238 hz39 (hz-HC8 / hz-LC4), IgG1.3f (antibody, V domains shown, IgG1.3f heavy constant, common CL; expression supernatant; also called Sup 39) VH: QVQLVQSGAEVVKPGASVKVSCKASGYAFTNYLIEWVRQRPGQGLEWMGVINPGSGGTNYNEKFKGRVTLTADKSSSTAYMQLSRLRSDDTAVYFCARSQLGRRFDYWGQGTLVTVSS VL: DIQMTQSPSSLSASVGDRVTITCKASQDVRTGVAWYQQKPGQSPKLLIYSASYRNTGVPSRFSGSRSGTDFTFTISSLQAEDIAVYYCQQHYSPPYTFGGGTKVEIK | 7.5 | 0.0003 | 40000
2 | humanized Y1238 hz40 (hz-HC8 / hz-LC5), IgG1.3f (antibody, V domains shown, IgG1.3f heavy constant, common CL; expression supernatant; also called Sup 40) VH: QVQLVQSGAEVVKPGASVKVSCKASGYAFTNYLIEWVRQRPGQGLEWMGVINPGSGGTNYNEKFKGRVTLTADKSSSTAYMQLSRLRSDDTAVYFCARSQLGRRFDYWGQGTLVTVSS VL: DIQMTQSPSSLSASVGDRVTITCKASQDVRTGVAWYQQKPGQAPKLLIYSASYRNTGVPSRFSGSRSGTDFTFTISSLQPEDIAVYYCQQHYSPPYTFGGGTKVEIK | 6.5 | 0.00026 | 39000
3 | humanized Y1238 hz41 (hz-HC9 / hz-LC1), IgG1.3f (antibody, V domains shown, IgG1.3f heavy constant, common CL; expression supernatant; also called Sup 41) VH: QVQLVQSGAEVVKPGASVKVSCKASGYAFTNYLIEWVRQRPGQGLEWMGVINPGSGGTNYNEKFKGRVTLTADKSSSTAYMQLSRLRSDDTAVYFCARSQLGRRFDYWGQGTTVTVSS VL: DIQMTQSPSSLSASVGDRVTITCKASQDVRTGVAWYQQKPGKAPKLLIYSASYRNTGVPSRFSGSGSGTDFTFTISSLQPEDIATYYCQQHYSPPYTFGGGTKVEIK | 4.4 | 0.00017 | 38000
4 | humanized Y1238 hz42 (hz-HC9 / hz-LC2), IgG1.3f (antibody, V domains shown, IgG1.3f heavy constant, common CL; expression supernatant; also called Sup 42) VH: QVQLVQSGAEVVKPGASVKVSCKASGYAFTNYLIEWVRQRPGQGLEWMGVINPGSGGTNYNEKFKGRVTLTADKSSSTAYMQLSRLRSDDTAVYFCARSQLGRRFDYWGQGTTVTVSS VL: DIQMTQSPSSLSASVGDRVTITCKASQDVRTGVAWYQQKPGKAPKLLIYSASYRNTGVPSRFSGSRSGTDFTFTISSLQPEDIATYYCQQHYSPPYTFGGGTKVEIK | 5.4 | 0.0002 | 36000
5 | humanized Y1238 hz43 (hz-HC9 / hz-LC3), IgG1.3f (antibody, V domains shown, IgG1.3f heavy constant, common CL; expression supernatant; also called Sup 43) VH: QVQLVQSGAEVVKPGASVKVSCKASGYAFTNYLIEWVRQRPGQGLEWMGVINPGSGGTNYNEKFKGRVTLTADKSSSTAYMQLSRLRSDDTAVYFCARSQLGRRFDYWGQGTTVTVSS VL: DIQMTQSPSSLSASVGDRVTITCKASQDVRTGVAWYQQKPGQSPKLLIYSASYRNTGVPSRFSGSRSGTDFTFTISSLQPEDIAVYYCQQHYSPPYTFGGGTKVEIK | 7.6 | 0.00029 | 39000
6 | humanized Y1238 hz44 (hz-HC9 / hz-LC4), IgG1.3f (antibody, V domains shown, IgG1.3f heavy constant, common CL; expression supernatant; also called Sup 44) VH: QVQLVQSGAEVVKPGASVKVSCKASGYAFTNYLIEWVRQRPGQGLEWMGVINPGSGGTNYNEKFKGRVTLTADKSSSTAYMQLSRLRSDDTAVYFCARSQLGRRFDYWGQGTTVTVSS VL: DIQMTQSPSSLSASVGDRVTITCKASQDVRTGVAWYQQKPGQSPKLLIYSASYRNTGVPSRFSGSRSGTDFTFTISSLQAEDIAVYYCQQHYSPPYTFGGGTKVEIK | 8.5 | 0.00033 | 39000
7 | humanized Y1238 hz45 (hz-HC9 / hz-LC5), IgG1.3f (antibody, V domains shown, IgG1.3f heavy constant, common CL; expression supernatant; also called Sup 45) VH: QVQLVQSGAEVVKPGASVKVSCKASGYAFTNYLIEWVRQRPGQGLEWMGVINPGSGGTNYNEKFKGRVTLTADKSSSTAYMQLSRLRSDDTAVYFCARSQLGRRFDYWGQGTTVTVSS VL: DIQMTQSPSSLSASVGDRVTITCKASQDVRTGVAWYQQKPGQAPKLLIYSASYRNTGVPSRFSGSRSGTDFTFTISSLQPEDIAVYYCQQHYSPPYTFGGGTKVEIK | 9.6 | 0.00038 | 39000
8 | humanized Y1238 hz46 (hz-HC10 / hz-LC1), IgG1.3f (antibody, V domains shown, IgG1.3f heavy constant, common CL; expression supernatant; also called Sup 46) VH: QVQLVQSGAEVKKPGASVKVSCKASGYAFTNYLIEWVRQRPGQGLEWMGVINPGSGGTNYNEKFKGRVTMTRDKSISTAYMELSRLRSDDTAVYYCARSQLGRRFDYWGQGTLVTVSS VL: DIQMTQSPSSLSASVGDRVTITCKASQDVRTGVAWYQQKPGKAPKLLIYSASYRNTGVPSRFSGSGSGTDFTFTISSLQPEDIATYYCQQHYSPPYTFGGGTKVEIK | 5.1 | 0.0002 | 39000
9 | humanized Y1238 hz47 (hz-HC10 / hz-LC2), IgG1.3f (antibody, V domains shown, IgG1.3f heavy constant, common CL; expression supernatant; also called Sup 47) VH: QVQLVQSGAEVKKPGASVKVSCKASGYAFTNYLIEWVRQRPGQGLEWMGVINPGSGGTNYNEKFKGRVTMTRDKSISTAYMELSRLRSDDTAVYYCARSQLGRRFDYWGQGTLVTVSS VL: DIQMTQSPSSLSASVGDRVTITCKASQDVRTGVAWYQQKPGKAPKLLIYSASYRNTGVPSRFSGSRSGTDFTFTISSLQPEDIATYYCQQHYSPPYTFGGGTKVEIK | 8.8 | 0.00032 | 36000
10 | humanized Y1238 hz48 (hz-HC10 / hz-LC3), IgG1.3f (antibody, V domains shown, IgG1.3f heavy constant, common CL; expression supernatant; also called Sup 48) VH: QVQLVQSGAEVKKPGASVKVSCKASGYAFTNYLIEWVRQRPGQGLEWMGVINPGSGGTNYNEKFKGRVTMTRDKSISTAYMELSRLRSDDTAVYYCARSQLGRRFDYWGQGTLVTVSS VL: DIQMTQSPSSLSASVGDRVTITCKASQDVRTGVAWYQQKPGQSPKLLIYSASYRNTGVPSRFSGSRSGTDFTFTISSLQPEDIAVYYCQQHYSPPYTFGGGTKVEIK | 14 | 0.00055 | 39000
11 | humanized Y1238 hz49 (hz-HC10 / hz-LC4), IgG1.3f (antibody, V domains shown, IgG1.3f heavy constant, common CL; expression supernatant; also called Sup 49) VH: QVQLVQSGAEVKKPGASVKVSCKASGYAFTNYLIEWVRQRPGQGLEWMGVINPGSGGTNYNEKFKGRVTMTRDKSISTAYMELSRLRSDDTAVYYCARSQLGRRFDYWGQGTLVTVSS VL: DIQMTQSPSSLSASVGDRVTITCKASQDVRTGVAWYQQKPGQSPKLLIYSASYRNTGVPSRFSGSRSGTDFTFTISSLQAEDIAVYYCQQHYSPPYTFGGGTKVEIK | 12 | 0.00048 | 39000
12 | humanized Y1238 hz50 (hz-HC10 / hz-LC5), IgG1.3f (antibody, V domains shown, IgG1.3f heavy constant, common CL; expression supernatant; also called Sup 50) VH: QVQLVQSGAEVKKPGASVKVSCKASGYAFTNYLIEWVRQRPGQGLEWMGVINPGSGGTNYNEKFKGRVTMTRDKSISTAYMELSRLRSDDTAVYYCARSQLGRRFDYWGQGTLVTVSS VL: DIQMTQSPSSLSASVGDRVTITCKASQDVRTGVAWYQQKPGQAPKLLIYSASYRNTGVPSRFSGSRSGTDFTFTISSLQPEDIAVYYCQQHYSPPYTFGGGTKVEIK | 16 | 0.00061 | 39000
13 | humanized Y1238 hz51 (hz-HC11 / hz-LC1), IgG1.3f (antibody, V domains shown, IgG1.3f heavy constant, common CL; expression supernatant; also called Sup 51) VH: QVQLVQSGAEVKKPGASVKVSCKASGYAFTNYLIEWVRQRPGQGLEWMGVINPGSGGTNYNEKFKGRVTMTRDKSSSTAYMELSRLRSDDTAVYFCARSQLGRRFDYWGQGTLVTVSS VL: DIQMTQSPSSLSASVGDRVTITCKASQDVRTGVAWYQQKPGKAPKLLIYSASYRNTGVPSRFSGSGSGTDFTFTISSLQPEDIATYYCQQHYSPPYTFGGGTKVEIK | 6.7 | 0.00025 | 37000
14 | humanized Y1238 hz52 (hz-HC11 / hz-LC2), IgG1.3f (antibody, V domains shown, IgG1.3f heavy constant, common CL; expression supernatant; also called Sup 52) VH: QVQLVQSGAEVKKPGASVKVSCKASGYAFTNYLIEWVRQRPGQGLEWMGVINPGSGGTNYNEKFKGRVTMTRDKSSSTAYMELSRLRSDDTAVYFCARSQLGRRFDYWGQGTLVTVSS VL: DIQMTQSPSSLSASVGDRVTITCKASQDVRTGVAWYQQKPGKAPKLLIYSASYRNTGVPSRFSGSRSGTDFTFTISSLQPEDIATYYCQQHYSPPYTFGGGTKVEIK | 6.5 | 0.00023 | 35000
15 | humanized Y1238 hz53 (hz-HC11 / hz-LC3), IgG1.3f (antibody, V domains shown, IgG1.3f heavy constant, common CL; expression supernatant; also called Sup 53) VH: QVQLVQSGAEVKKPGASVKVSCKASGYAFTNYLIEWVRQRPGQGLEWMGVINPGSGGTNYNEKFKGRVTMTRDKSSSTAYMELSRLRSDDTAVYFCARSQLGRRFDYWGQGTLVTVSS VL: DIQMTQSPSSLSASVGDRVTITCKASQDVRTGVAWYQQKPGQSPKLLIYSASYRNTGVPSRFSGSRSGTDFTFTISSLQPEDIAVYYCQQHYSPPYTFGGGTKVEIK | 18 | 0.00067 | 37000
16 | humanized Y1238 hz54 (hz-HC11 / hz-LC4), IgG1.3f (antibody, V domains shown, IgG1.3f heavy constant, common CL; expression supernatant; also called Sup 54) VH: QVQLVQSGAEVKKPGASVKVSCKASGYAFTNYLIEWVRQRPGQGLEWMGVINPGSGGTNYNEKFKGRVTMTRDKSSSTAYMELSRLRSDDTAVYFCARSQLGRRFDYWGQGTLVTVSS VL: DIQMTQSPSSLSASVGDRVTITCKASQDVRTGVAWYQQKPGQSPKLLIYSASYRNTGVPSRFSGSRSGTDFTFTISSLQAEDIAVYYCQQHYSPPYTFGGGTKVEIK | 15 | 0.00056 | 38000
17 | humanized Y1238 hz55 (hz-HC11 / hz-LC5), IgG1.3f (antibody, V domains shown, IgG1.3f heavy constant, common CL; expression supernatant; also called Sup 55) VH: QVQLVQSGAEVKKPGASVKVSCKASGYAFTNYLIEWVRQRPGQGLEWMGVINPGSGGTNYNEKFKGRVTMTRDKSSSTAYMELSRLRSDDTAVYFCARSQLGRRFDYWGQGTLVTVSS VL: DIQMTQSPSSLSASVGDRVTITCKASQDVRTGVAWYQQKPGQAPKLLIYSASYRNTGVPSRFSGSRSGTDFTFTISSLQPEDIAVYYCQQHYSPPYTFGGGTKVEIK | 15 | 0.00056 | 37000
